Test results published in patent US7657380.

What was measured:
[1] = target: GST-fused human V158 FcγRIIIa (extracellular region) (human) (UniProt P08637); experiment: AlphaScreen competition vs biotin-WT AC10
[2] = target: GST-fused human V158 FcγRIIIa (extracellular region) (human) (UniProt P08637); experiment: SPR, GST-FcγRIIIa V158 on chip

Chain of GST-fused human V158 FcγRIIIa (extracellular region) (human) (P08637 17-208 F176V): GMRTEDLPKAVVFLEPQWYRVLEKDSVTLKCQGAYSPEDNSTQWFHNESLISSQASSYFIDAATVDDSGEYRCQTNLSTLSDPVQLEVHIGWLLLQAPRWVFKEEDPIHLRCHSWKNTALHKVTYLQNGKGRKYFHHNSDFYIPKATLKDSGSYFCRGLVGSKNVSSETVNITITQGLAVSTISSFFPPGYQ

Q: AC10 WT (H0/L0) full length antibody was tested. Which IC50 [1] did it give?
A: 87.2 nM

Q: And the Kd [2]?
A: 18.6 nM
